Laboratory results: the supplement of paper PMC10065799, “High-throughput profiling of sequence recognition by tyrosine kinases and SH2 domains using bacterial peptide display” (eLife, 2023)

Columns and labels:
SHP2-C SH2 = assay: SH2 binding enrichment of the phosphorylated peptide, bacterial display (enrichment ratio); higher = better substrate or ligand; peptides without Tyr show the background
c-Src SH2 = assay: as above
Grb2 SH2 = Grb2 SH2 (UniProt P62993); assay: as above
Fyn = Fyn (UniProt P06241); assay: phosphorylation enrichment, bacterial display (enrichment ratio); higher = better substrate or ligand; peptides without Tyr show the background
Fes = Fes (UniProt P07332); assay: as above
Sequence of Fes (P07332 whole entry, looked up): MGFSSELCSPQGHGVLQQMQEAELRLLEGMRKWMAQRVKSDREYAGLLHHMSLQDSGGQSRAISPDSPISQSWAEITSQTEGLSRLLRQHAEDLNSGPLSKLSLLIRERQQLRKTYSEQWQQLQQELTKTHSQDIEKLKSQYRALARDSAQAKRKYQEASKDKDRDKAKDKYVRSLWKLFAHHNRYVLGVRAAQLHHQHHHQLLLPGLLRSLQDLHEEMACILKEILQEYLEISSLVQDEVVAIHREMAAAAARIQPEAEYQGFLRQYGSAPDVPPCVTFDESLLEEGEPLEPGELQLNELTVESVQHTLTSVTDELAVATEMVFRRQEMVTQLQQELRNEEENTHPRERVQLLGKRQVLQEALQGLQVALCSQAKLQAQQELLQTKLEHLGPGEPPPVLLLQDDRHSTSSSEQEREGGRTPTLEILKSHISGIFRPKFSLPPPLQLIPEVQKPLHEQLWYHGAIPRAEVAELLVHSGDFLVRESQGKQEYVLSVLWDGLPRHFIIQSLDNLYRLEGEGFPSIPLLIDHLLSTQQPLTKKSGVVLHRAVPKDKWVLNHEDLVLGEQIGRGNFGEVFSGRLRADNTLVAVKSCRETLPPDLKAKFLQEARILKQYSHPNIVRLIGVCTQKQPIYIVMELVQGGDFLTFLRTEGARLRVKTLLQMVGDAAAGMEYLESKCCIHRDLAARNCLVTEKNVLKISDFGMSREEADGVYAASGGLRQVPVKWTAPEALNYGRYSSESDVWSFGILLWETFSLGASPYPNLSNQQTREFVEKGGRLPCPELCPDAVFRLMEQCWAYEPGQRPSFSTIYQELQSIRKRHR

AncSZ = assay: as above
FGFR1 = FGFR1 (UniProt P11362); assay: as above
Sequence of FGFR1 (P11362 whole entry, looked up): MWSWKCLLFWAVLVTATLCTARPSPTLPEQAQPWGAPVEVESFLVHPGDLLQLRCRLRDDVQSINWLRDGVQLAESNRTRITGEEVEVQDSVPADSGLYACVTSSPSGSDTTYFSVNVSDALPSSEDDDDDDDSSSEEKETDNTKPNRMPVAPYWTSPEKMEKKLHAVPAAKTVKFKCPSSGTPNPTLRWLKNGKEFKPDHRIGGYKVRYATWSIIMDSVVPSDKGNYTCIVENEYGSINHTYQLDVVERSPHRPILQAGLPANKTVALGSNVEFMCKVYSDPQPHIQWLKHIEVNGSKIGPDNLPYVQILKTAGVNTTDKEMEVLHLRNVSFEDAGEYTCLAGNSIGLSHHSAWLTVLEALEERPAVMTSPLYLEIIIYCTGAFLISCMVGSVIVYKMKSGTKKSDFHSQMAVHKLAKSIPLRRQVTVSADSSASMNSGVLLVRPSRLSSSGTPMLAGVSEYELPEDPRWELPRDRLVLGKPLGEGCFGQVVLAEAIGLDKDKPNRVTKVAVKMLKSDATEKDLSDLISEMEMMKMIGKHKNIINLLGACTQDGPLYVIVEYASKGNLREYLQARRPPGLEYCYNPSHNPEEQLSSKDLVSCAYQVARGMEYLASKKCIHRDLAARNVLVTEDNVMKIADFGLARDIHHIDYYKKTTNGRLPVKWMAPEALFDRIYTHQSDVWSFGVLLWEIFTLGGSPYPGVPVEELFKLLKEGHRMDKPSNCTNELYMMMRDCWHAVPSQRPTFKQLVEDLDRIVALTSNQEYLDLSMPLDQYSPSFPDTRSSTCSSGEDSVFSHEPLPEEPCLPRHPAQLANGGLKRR

EPHB2 = EPHB2 (UniProt P29323); assay: as above
Sequence of EPHB2 (P29323 whole entry, looked up): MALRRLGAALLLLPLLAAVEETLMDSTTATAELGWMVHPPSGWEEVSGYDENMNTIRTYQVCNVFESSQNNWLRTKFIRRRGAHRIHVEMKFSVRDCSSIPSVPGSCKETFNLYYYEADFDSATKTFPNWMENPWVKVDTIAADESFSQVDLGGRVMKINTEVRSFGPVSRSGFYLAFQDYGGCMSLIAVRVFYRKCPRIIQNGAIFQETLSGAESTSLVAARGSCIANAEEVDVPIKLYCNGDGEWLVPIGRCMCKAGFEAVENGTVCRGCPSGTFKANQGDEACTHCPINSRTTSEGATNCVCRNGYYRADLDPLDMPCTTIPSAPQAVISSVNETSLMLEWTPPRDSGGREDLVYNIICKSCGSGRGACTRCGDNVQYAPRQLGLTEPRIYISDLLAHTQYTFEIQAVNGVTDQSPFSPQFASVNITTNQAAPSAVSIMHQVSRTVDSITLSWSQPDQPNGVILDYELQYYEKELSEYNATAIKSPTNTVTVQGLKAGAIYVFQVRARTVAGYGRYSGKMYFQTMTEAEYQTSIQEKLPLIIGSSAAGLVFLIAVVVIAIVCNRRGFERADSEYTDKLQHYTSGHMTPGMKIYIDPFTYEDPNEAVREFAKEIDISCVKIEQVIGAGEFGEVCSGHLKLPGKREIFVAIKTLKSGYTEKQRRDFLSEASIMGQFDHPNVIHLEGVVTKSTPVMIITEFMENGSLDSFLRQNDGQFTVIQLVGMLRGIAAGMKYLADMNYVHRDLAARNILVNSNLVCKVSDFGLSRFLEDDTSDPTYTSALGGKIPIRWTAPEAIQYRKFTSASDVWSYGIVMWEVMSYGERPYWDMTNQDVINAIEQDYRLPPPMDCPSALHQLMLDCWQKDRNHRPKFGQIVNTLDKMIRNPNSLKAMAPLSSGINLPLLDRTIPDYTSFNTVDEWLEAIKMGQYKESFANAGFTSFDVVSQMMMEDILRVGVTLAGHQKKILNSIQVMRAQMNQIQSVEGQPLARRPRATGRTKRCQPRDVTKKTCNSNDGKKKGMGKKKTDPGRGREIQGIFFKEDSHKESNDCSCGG

MERTK = MERTK (UniProt Q12866); assay: as above
FGFR3 = FGFR3 (UniProt P22607); assay: as above
Sequence of FGFR3 (P22607 whole entry, looked up): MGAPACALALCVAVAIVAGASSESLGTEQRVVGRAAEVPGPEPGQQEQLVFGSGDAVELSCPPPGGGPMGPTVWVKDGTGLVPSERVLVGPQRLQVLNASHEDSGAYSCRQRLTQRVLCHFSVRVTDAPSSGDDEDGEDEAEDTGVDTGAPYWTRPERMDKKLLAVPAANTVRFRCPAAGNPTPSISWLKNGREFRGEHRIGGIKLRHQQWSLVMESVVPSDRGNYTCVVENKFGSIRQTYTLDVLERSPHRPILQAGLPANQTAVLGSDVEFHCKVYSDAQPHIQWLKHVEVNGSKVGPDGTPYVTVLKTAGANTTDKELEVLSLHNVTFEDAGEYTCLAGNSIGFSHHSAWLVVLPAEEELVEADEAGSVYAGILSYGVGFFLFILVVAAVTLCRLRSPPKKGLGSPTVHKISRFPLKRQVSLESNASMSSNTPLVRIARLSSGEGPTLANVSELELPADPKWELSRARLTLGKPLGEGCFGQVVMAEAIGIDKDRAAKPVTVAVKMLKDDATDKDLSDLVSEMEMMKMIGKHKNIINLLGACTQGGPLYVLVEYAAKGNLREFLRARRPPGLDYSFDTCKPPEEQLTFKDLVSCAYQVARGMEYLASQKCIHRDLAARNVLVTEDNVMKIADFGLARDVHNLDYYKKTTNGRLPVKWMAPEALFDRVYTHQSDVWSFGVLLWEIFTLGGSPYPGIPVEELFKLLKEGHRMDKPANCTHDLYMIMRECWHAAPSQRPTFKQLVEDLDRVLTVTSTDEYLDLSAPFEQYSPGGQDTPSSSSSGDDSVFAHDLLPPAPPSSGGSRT

Fer (mouse) = assay: as above
Jak2 = Jak2 (UniProt O60674); assay: as above
Sequence of Jak2 (O60674 whole entry, looked up): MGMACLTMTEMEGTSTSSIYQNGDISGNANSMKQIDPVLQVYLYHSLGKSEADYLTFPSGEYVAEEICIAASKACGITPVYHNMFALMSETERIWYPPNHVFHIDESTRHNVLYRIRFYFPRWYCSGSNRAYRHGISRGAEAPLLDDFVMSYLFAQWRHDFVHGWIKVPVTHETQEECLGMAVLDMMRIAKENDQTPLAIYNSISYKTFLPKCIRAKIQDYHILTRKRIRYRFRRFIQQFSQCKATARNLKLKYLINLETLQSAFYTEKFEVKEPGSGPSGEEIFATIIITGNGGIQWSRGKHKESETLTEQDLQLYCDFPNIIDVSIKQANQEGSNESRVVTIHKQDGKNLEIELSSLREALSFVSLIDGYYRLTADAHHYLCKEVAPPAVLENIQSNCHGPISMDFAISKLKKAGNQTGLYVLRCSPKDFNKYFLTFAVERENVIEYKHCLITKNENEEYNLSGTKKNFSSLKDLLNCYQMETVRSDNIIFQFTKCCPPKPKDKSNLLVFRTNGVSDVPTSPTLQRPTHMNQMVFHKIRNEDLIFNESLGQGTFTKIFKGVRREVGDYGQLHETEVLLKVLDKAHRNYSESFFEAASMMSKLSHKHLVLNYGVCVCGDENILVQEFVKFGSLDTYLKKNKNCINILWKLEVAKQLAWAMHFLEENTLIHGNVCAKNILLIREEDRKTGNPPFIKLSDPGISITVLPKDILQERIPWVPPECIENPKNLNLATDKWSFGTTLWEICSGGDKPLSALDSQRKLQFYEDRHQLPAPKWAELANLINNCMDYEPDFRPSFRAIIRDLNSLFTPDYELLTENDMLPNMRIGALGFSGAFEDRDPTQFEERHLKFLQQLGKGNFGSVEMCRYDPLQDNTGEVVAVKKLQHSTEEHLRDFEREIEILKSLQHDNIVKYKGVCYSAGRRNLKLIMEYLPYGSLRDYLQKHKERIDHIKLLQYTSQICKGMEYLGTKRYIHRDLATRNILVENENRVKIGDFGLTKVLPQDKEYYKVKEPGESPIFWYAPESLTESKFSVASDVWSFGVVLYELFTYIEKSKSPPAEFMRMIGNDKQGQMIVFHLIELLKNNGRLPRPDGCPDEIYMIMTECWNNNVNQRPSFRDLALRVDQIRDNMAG

c-Abl (mouse) = assay: as above
EPHB1 = EPHB1 (UniProt P54762); assay: as above
Hck = Hck (UniProt P08631); assay: as above
c-Src = assay: as above
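For SH2 binding enrichment of the phosphorylated peptide, bacterial display in this document: peptide library displayed on the E. coli surface as eCPX fusions, selected cells deep-sequenced, score is each peptide's frequency after selection divided by its frequency in the input.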
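For phosphorylation enrichment, bacterial display in this document: 11-residue human phosphosite peptides and single-mutation variants displayed on the E. coli surface, counted by deep sequencing, each peptide's frequency after selection divided by its frequency in the unselected input library; frequency after pTyr selection over input frequency; kinase dosed for 20-30% of maximal phosphorylation in three min.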

Sequence of Grb2 SH2 (P62993 whole entry, looked up): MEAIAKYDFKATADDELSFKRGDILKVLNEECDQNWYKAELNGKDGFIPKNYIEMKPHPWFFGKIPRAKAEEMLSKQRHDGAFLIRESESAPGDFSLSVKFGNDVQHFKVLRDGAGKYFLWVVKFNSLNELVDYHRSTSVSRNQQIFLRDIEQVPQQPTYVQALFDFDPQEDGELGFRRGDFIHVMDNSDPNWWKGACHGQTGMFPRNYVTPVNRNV

Sequence | SH2 binding enrichment (SHP2-C SH2) | SH2 binding enrichment (c-Src SH2) | SH2 binding enrichment (Grb2 SH2) | phosphorylation enrichment (Fyn) | phosphorylation enrichment (Fes) | phosphorylation enrichment (AncSZ) | phosphorylation enrichment (FGFR1) | phosphorylation enrichment (EPHB2) | phosphorylation enrichment (MERTK) | phosphorylation enrichment (FGFR3) | phosphorylation enrichment (Fer (mouse)) | phosphorylation enrichment (Jak2) | phosphorylation enrichment (c-Abl (mouse)) | phosphorylation enrichment (EPHB1) | phosphorylation enrichment (Hck) | phosphorylation enrichment (c-Src)
LTSKPYAFTAW [NDUFS1_Y236_R241W] | 0.992 | 0.749 | 1.01 | 0.371 | 0.717 | 0.575 | 0.413 | 0.544 | 1.12 | 0.511 | 0.448 | 0.682 | 0.503 | 0.421 | 0.353 | 0.4
RRGLLYDSDEE [MCM2_Y137] | 0.81 | 0.606 | 0.661 | 1.29 | 1.13 | 1.25 | 0.898 | 0.642 | 0.855 | 1.3 | 1.08 | 0.77 | 0.59 | 0.796 | 1.16 | 0.763
DAVCFYRMENA [NPHS2_Y195_I192V_YF] | 0.674 | 0.437 | 0.714 | 0.986 | 1.23 | 1.21 | 0.698 | 0.685 | 0.695 | 1.06 | 0.614 | 1.22 | 0.882 | 0.698 | 0.788 | 3.07
LSNPAYRLLLA [DDR1_Y513] | 1.01 | 0.582 | 1.06 | 0.954 | 1.15 | 1.27 | 1.17 | 1.1 | 0.568 | 1.19 | 0.981 | 1.99 | 0.917 | 0.945 | 1.14 | 1.21
ISDNACQFMLT [MYH7_Y162_Y162C_YF] | 0.687 | 0.419 | 0.692 | 0.597 | 1.21 | 0.946 | 0.588 | 0.615 | 0.448 | 0.877 | 0.51 | 1.04 | 0.696 | 0.712 | 0.606 | 0.448
QEIATYRRLQE [KRT14_Y415_L419Q] | 1.21 | 0.475 | 0.702 | 0.578 | 0.803 | 0.926 | 0.699 | 0.721 | 0.7 | 0.512 | 0.506 | 1.51 | 1.1 | 0.568 | 0.482 | 0.717
LEDEVCAQKMK [TPM2_Y261_Y261C] | 1.38 | 0.967 | 1.02 | 1.01 | 2.03 | 1.6 | 0.79 | 0.963 | 0.848 | 1.16 | 1.01 | 1.44 | 1.2 | 1.07 | 0.832 | 0.573
KFLENYFDLKK [MMP3_Y41_YF] | 0.709 | 0.604 | 0.886 | 0.448 | 1.27 | 1.06 | 2.51 | 0.751 | 0.446 | 1.75 | 0.467 | 1.26 | 0.816 | 1.94 | 0.543 | 0.499
ASKEPYYVHCI [MYO1D_Y585_R588H] | 0.889 | 0.685 | 0.924 | 0.482 | 0.974 | 0.953 | 1.89 | 1.21 | 0.636 | 1.36 | 0.506 | 0.755 | 0.627 | 1.96 | 0.554 | 0.576
GEVLVYVEDPA [FLNA_Y319] | 0.553 | 0.45 | 0.706 | 0.529 | 1.41 | 1.33 | 0.694 | 0.728 | 0.478 | 0.81 | 0.85 | 1.34 | 0.917 | 0.798 | 0.589 | 0.636
AAYNRYDQERF [CDC73_Y293] | 0.585 | 0.497 | 0.737 | 0.457 | 0.752 | 0.681 | 0.521 | 0.463 | 0.518 | 0.538 | 0.433 | 0.646 | 0.512 | 0.401 | 0.447 | 0.468
WCSNDHLGMSR [ALAS2_Y199_Y199H] | 0.811 | 0.684 | 0.801 | 0.434 | 0.671 | 0.754 | 0.416 | 0.514 | 0.418 | 0.576 | 0.438 | 0.537 | 0.504 | 0.394 | 0.375 | 0.447
VTAALYGRLFE [BTD_Y536_YF] | 1.16 | 0.627 | 1.16 | 6.32 | 0.734 | 0.748 | 0.439 | 0.656 | 1.08 | 0.527 | 0.436 | 0.633 | 0.626 | 0.535 | 5.74 | 4.97
QELRRYLKSGV [MICA_Y194] | 0.384 | 0.465 | 0.764 | 0.553 | 0.787 | 0.652 | 0.582 | 0.875 | 0.544 | 0.804 | 0.626 | 0.566 | 0.659 | 0.765 | 0.957 | 0.577
ALAQKYHGGGG [HBB_Y146_H144Q] | 0.743 | 0.506 | 0.782 | 0.335 | 0.491 | 0.492 | 0.348 | 0.366 | 0.363 | 0.497 | 0.296 | 0.462 | 0.592 | 0.372 | 0.368 | 0.404
TEQDPYNSIVR [MMUT_Y364_N366S] | 0.711 | 1.48 | 0.952 | 0.494 | 1.01 | 1.03 | 0.697 | 0.616 | 0.4 | 0.665 | 0.488 | 0.889 | 0.661 | 0.496 | 0.551 | 0.593
RQNQEYEILLD [KRT39_Y379] | 1.57 | 1.21 | 1.19 | 0.634 | 1.6 | 1.38 | 0.622 | 1.21 | 0.63 | 0.678 | 0.595 | 1.67 | 1.04 | 1.35 | 0.705 | 0.733
QQIFTYDSGIH [JUP_Y22_T19I_YF] | 0.793 | 0.653 | 0.936 | 0.897 | 1.32 | 1.46 | 0.784 | 0.991 | 0.901 | 1.09 | 0.653 | 1.2 | 1.14 | 0.967 | 0.833 | 0.939
RHTRSYDFMEG [FGF7_Y56_YF] | 1.2 | 1.92 | 0.944 | 0.823 | 1.19 | 0.848 | 0.591 | 0.792 | 1.13 | 0.726 | 0.794 | 0.852 | 1.3 | 0.293 | 0.857 | 0.82
PSQRRYVYYYS [PTEN_Y174] | 4.7 | 2.25 | 1.55 | 0.648 | 1.08 | 0.958 | 2.08 | 0.459 | 2.42 | 0.785 | 0.503 | 1.13 | 1.21 | 0.57 | 0.497 | 0.872
EVGHVYLFLQP [ITGA2B_Y360_R358H] | 0.669 | 0.425 | 0.755 | 0.472 | 1.42 | 1.33 | 0.512 | 0.679 | 0.393 | 0.893 | 0.618 | 1.42 | 0.885 | 0.735 | 0.5 | 0.434
LQTFRYHGLSM [PDHA1_Y289_H292L_YF] | 0.448 | 0.486 | 0.886 | 1.07 | 1.21 | 1.26 | 0.835 | 0.822 | 0.747 | 1.38 | 1.27 | 0.732 | 0.589 | 1.05 | 0.578 | 0.356
TNRSFYFKPSL [NUP153_Y382_V381F] | 0.774 | 0.806 | 1.04 | 0.428 | 0.993 | 0.988 | 0.954 | 0.555 | 2.6 | 0.63 | 0.406 | 3.54 | 1.35 | 0.646 | 0.533 | 0.491
LTECGYSFTTT [ACTB_Y198_R196C] | 0.602 | 0.736 | 0.574 | 0.582 | 1.15 | 1.09 | 0.674 | 0.781 | 0.417 | 0.754 | 0.733 | 0.889 | 0.708 | 0.592 | 0.555 | 0.671
PLRADYLIARV [HLCS_Y635] | 0.711 | 0.46 | 0.896 | 0.319 | 1.1 | 0.777 | 0.8 | 0.487 | 0.717 | 0.495 | 0.515 | 0.747 | 0.853 | 0.312 | 0.461 | 0.582
IVAREYFSEAD [CAMK2A_Y106_YF] | 0.867 | 0.566 | 0.9 | 0.538 | 1.16 | 1.09 | 0.508 | 0.657 | 0.472 | 0.752 | 0.563 | 0.965 | 0.728 | 0.6 | 0.5 | 0.491
ACRSLYGGFVE [MVD_Y164] | 0.808 | 0.574 | 0.751 | 11.2 | 1.04 | 1.11 | 0.625 | 0.642 | 0.621 | 0.727 | 0.605 | 0.698 | 0.511 | 0.568 | 7.94 | 7.11
AKYLGYPPPEI [KDR_Y357] | 0.749 | 0.43 | 0.831 | 0.321 | 0.849 | 0.543 | 0.395 | 0.535 | 0.378 | 0.556 | 0.398 | 0.594 | 0.538 | 0.374 | 0.512 | 0.385
SEEVTYATLTF [CLEC12B_Y7] | 2.52 | 0.481 | 0.845 | 6.58 | 1.53 | 1.48 | 1.49 | 1.07 | 2.18 | 1.57 | 2.19 | 1.38 | 5.98 | 0.98 | 5.06 | 5.28
